Results reported in PMC5048595.

T1: hPolη (human DNA polymerase eta) (Homo sapiens, UniProt Q9Y253 1-713)
T1 sequence: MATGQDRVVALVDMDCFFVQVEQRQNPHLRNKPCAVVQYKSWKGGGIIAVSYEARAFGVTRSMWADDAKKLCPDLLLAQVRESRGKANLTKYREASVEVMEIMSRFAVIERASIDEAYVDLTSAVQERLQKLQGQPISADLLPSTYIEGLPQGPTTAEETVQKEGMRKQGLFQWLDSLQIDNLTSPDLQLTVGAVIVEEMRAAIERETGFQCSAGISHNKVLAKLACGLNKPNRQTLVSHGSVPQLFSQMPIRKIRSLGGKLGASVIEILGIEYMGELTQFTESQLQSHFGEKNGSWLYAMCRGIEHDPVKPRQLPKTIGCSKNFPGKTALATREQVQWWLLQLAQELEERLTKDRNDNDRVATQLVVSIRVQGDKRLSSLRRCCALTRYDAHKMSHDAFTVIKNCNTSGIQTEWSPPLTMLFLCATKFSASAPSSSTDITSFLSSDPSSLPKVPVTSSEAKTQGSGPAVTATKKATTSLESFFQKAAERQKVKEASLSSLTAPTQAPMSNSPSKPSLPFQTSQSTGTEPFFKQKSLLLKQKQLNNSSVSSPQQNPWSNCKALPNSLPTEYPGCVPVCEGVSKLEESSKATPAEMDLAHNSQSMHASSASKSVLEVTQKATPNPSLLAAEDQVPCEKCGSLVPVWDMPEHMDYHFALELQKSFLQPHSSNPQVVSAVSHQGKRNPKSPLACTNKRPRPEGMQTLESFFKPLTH

B1: 22/26-mer-dGC8-N-ABA (dsDNA)
DNA 1: AACGACGGCCAGTGAATTCGCG
DNA 2: CCCGCGCGAATTCACTGGCCGTCGTT
modifications: template dG at position 21 from 3' end (6 from 5' end) is N-(2'-deoxyguanosin-8-yl)-3-aminobenzanthrone
B2: 21/26-mer-dGC8-N-ABA (dsDNA)
DNA 1: AACGACGGCCAGTGAATTCGC
DNA 2: CCCGCGCGAATTCACTGGCCGTCGTT
modifications: template dG at position 21 from 3' end (6 from 5' end) is N-(2'-deoxyguanosin-8-yl)-3-aminobenzanthrone
B3: 20/26-mer (dsDNA)
DNA 1: AACGACGGCCAGTGAATTCG
DNA 2: CCCGCGCGAATTCACTGGCCGTCGTT
B4: 19/26-mer (dsDNA)
DNA 1: AACGACGGCCAGTGAATTC
DNA 2: CCCGCGCGAATTCACTGGCCGTCGTT
B5: 18/26-mer-dGC8-N-ABA (dsDNA)
DNA 1: AACGACGGCCAGTGAATT
DNA 2: CCCGCGCGAATTCACTGGCCGTCGTT
modifications: template dG at position 21 from 3' end (6 from 5' end) is N-(2'-deoxyguanosin-8-yl)-3-aminobenzanthrone
B6: 21/26-mer (dsDNA)
DNA 1: AACGACGGCCAGTGAATTCGC
DNA 2: CCCGCGCGAATTCACTGGCCGTCGTT
B7: 19/26-mer-dGC8-N-ABA (dsDNA)
DNA 1: AACGACGGCCAGTGAATTC
DNA 2: CCCGCGCGAATTCACTGGCCGTCGTT
modifications: template dG at position 21 from 3' end (6 from 5' end) is N-(2'-deoxyguanosin-8-yl)-3-aminobenzanthrone
B8: 18/26-mer (dsDNA)
DNA 1: AACGACGGCCAGTGAATT
DNA 2: CCCGCGCGAATTCACTGGCCGTCGTT
B9: 22/26-mer (dsDNA)
DNA 1: AACGACGGCCAGTGAATTCGCG
DNA 2: CCCGCGCGAATTCACTGGCCGTCGTT
B10: 20/26-mer-dGC8-N-ABA (dsDNA)
DNA 1: AACGACGGCCAGTGAATTCG
DNA 2: CCCGCGCGAATTCACTGGCCGTCGTT
modifications: template dG at position 21 from 3' end (6 from 5' end) is N-(2'-deoxyguanosin-8-yl)-3-aminobenzanthrone

What follows are binders tested against T1, hPolη (human DNA polymerase eta) (assay: EMSA).

Binder | Kd [nM]
B1 | 24 ± 4
B2 | 26 ± 7
B3 | 23 ± 2
B4 | 25 ± 5
B5 | 32 ± 5
B6 | 26 ± 1
B7 | 12 ± 2
B8 | 28 ± 3
B9 | 17 ± 6
B10 | 12 ± 2
